Measured values as given in patent publication US6673571B2, “Polypeptides having aminopeptidase activity and nucleic acids encoding same” (Novozymes Biotech, Inc., priority 1997, dated 2004).

Assay: Specific activity in glycine aminopeptidase units (GAPU)
Assay type: biochemical
Settings: Gly-pNA, 50 mM Tris-HCl pH 7.5, 37° C.
Method: The enzymes used with FLAVOURZYME™ and ALCALASE® were crude Sphingomonas capsulata aminopeptidase I powder and purified Sphingomonas capsulata aminopeptidase I as in Example 7. Glycine aminopeptidase unit (GAPU) of both crude and purified enzyme was measured in 50 mM Tris-HCl pH 7.5 buffer at 37° C. using Gly-pNA as a substrate. Aminopeptidase I was assayed at 37° C. in 50 mM Tris-HCl (pH 7.5). Gly-pNA (Bachem Feinchemikalien AG, Bubendorf, Switzerland) was dissolved in 40% dioxane at a concentration of 2.5 mg/ml and 1.5 volume of 50 mM Tris-HCl (pH 7.5) was added to a substrate concentration of 1 mg/ml. The enzyme sample was diluted in 500 μl of the same buffer and 100 μl of the substrate solution was added and incubated at 37° C. for 5 minutes. The reaction was terminated by the addition of 300 μl of 1 M sodium acetate pH 4.0 buffer. For the blank reaction, the stop solution was added to the enzyme solution and incubated for 5 minutes at 37° C., and then the substrate solution was added. The absorbance at 410 nm was measured for both the sample and blank reactions. The enzyme activity was calculated using the molecular extinction coefficient at 410 nm for pNA as 9480 M^−1 cm^−1. One unit of GAPU was defined as the quantity of enzyme that hydrolyses 1 micromole of Gly-pNA at 37° C. per minute under the conditions described above. […]

B1: Sphingomonas capsulata aminopeptidase I: purified aminopeptidase of 67 kDa from Sphingomonas capsulata IFO 12533; deduced amino acid sequence SEQ ID NO:2 (protein)
chain: MRKTPQGIGLLSALSTSTLALATLILAQPALAQVQPASNSRPMAVPIAHGVPDAQDVPYPGTIGLQIDATDLATGAFRVVETVPVAADAKELILQLPAWLPGEHGNRGPVAELAGITFEAKGQKLAWTRDPVEVNAFHIPLPAGTSEVVARFIHTSPLRDSEGRITVTREMLNVQWEKMSLYPAGHYVRQIKVRPTVSFPQGWTVFTALDGKTQSGAGNTVTWAETDYETLVDSPIFAGLYAARHDLGHNVYFDLVADKPELLAIKPENLAAYRNLADEAVGAFGARHFDHYDFLLALTDRMGSIGLEHHRSSENQQEPKSLTDWAAYDWDRNVIAHEFSHSWDGKYRRSAKLWTPDYRQPMQDNLLWVYEGQTQFWGLVLAARSGVQSKDVVLGSLANYAGTFTQTAGRDWRSVEDTTMDPIFAARKPKPYSSLTRNEDYYTEGALVWLEADQIIRDGTGGKKGLDDFAKAFFGVRDGDWGVLTYEFDDVVKTLNGVYPYDWATFLKTRLQTPGQPVPLGGIERGGYKLEFKDEPNPYDKARMADAKVLSLFNSLGVTLDKDGKVTASRWDGPAFKAGLVSGMQVMAVNGDAYDADKLKGAITNAKTGNPGAGRPIELLVKRDDRFVTLPITYADGLRWPWLVRTAPGTAPTGLDKLLAPHASKLPVGKAAK
B1 showed a specific activity of 6.45 GAPU/mg.
